The record followed here is patent publication US20140087995A1 (published 2014).

Numbered stars: 1 amine (or outer) side, 2 acyl side, 3 side chain; on linkers, the order of the positions; unused ones are H or OH. Bridge positions count the residues as written; N and C are the ends. Side chains are listed from the residue outwards. Ends that are not written are not given here. * marks the point of attachment. C20 diacid = O=C(O)CCCCCCCCCCCCCCCCCCC(=O)*; γGlu = O=C(O)[C@H](CCC(=O)[*:2])N[*:1]; AEEA = NCCOCCOCC(=O)O

Assay [1] addresses T1, human calcitonin receptor (human, UniProt P30988 25-474).
T1 construct: whole, on cells; Used as cell membranes; also called hCTR; hCT
T1 sequence (looked up): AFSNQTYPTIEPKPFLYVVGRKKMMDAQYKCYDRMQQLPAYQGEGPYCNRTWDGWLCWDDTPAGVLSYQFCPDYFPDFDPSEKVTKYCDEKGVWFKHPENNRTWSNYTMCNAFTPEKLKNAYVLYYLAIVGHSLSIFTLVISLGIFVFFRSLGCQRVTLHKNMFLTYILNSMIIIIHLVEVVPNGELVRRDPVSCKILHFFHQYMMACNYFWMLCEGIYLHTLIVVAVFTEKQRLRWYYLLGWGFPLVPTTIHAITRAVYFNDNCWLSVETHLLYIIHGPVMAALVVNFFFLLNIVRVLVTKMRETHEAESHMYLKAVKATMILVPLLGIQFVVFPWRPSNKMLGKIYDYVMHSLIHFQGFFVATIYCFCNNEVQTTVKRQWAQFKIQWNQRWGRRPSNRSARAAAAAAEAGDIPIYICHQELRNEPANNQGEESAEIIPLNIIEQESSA
Description: ratio of hCTR IC50 to hAmylin-R IC50 (reference: human amylin receptor). Here is the method:
The resulting pellet was resuspended, homogenized and centrifuged (20.000 rpm, 15 min) in a buffer containing 20 mM Na-HEPES and 0.1 mM EDTA (pH 7.4, buffer 2). The resulting pellet was resuspended in buffer 2 and protein concentration was measured (BCA protein Assay, Pierce). The homogenate was kept cold during the whole procedure. The membranes were kept at −80° C. until use. The assay was performed in a 384 well Optiplate (PerkinElmer) in a total volume of 40 ul. Membranes were mixed with SPA beads. Final concentration of membranes 35 ng/μL final and SPA beads was 0.05 mg/well. Test-compounds were dissolved in DMSO and further diluted in assay buffer (50 mM Hepes, pH 7.4, 1 mM CaCl2, 5 mM MgCl₂, 0.1% OA and 0.02% Tween20). […] The final mixture was incubated with shaking at 400 rpm for 120 min at 25° C. prior to centrifugation (1500 rpm, 10 min). Samples were analyzed on TopCounter™ (Packard). The IC₅₀ was calculated using (one site binding competition analysis) GraphPad Prism5 as a measure of receptor affinity.
Membranes were prepared in the following way; the cells were rinsed with PBS and incubated with Versene for approximately 5 min before harvesting. The cells were flushed with PBS and the cell-suspension was centrifuged for 5 min at 1000 rpm. Cells were homogenized (Ultrathurrax) in a buffer containing 20 mM Na-HEPES and 10 mM EDTA (pH 7.4) and centrifuged at 20.000 rpm for 15 min. The resulting pellet was resuspended, homogenized and centrifuged (20.000 rpm, 15 min) in a buffer containing 20 mM Na-HEPES and 0.1 mM EDTA (pH 7.4, buffer 2). The resulting pellet was resuspended in buffer 2 and protein concentration was measured (BCA protein Assay, Pierce). The homogenate was kept cold during the whole procedure. The membranes were kept at −80° C. until use. Assay was performed in a 384 well Optiplate (PerkinElmer) in a total volume of 40 ul. Membranes were mixed with SPA beads.

Assay [2] concerns the target T1, human calcitonin receptor. Kind of assay: SPA competition on BHK cell membranes, 125I-calcitonin as radioligand (Assay VII). Here is the method: Membranes were prepared in the following way; the cells were rinsed with PBS and incubated with Versene for approximately 5 min before harvesting. The cells were flushed with PBS and the cell-suspension was centrifuged for 5 min at 1000 rpm. Cells were homogenized (Ultrathurrax) in a buffer containing 20 mM Na-HEPES and 10 mM EDTA (pH 7.4) and centrifuged at 20.000 rpm for 15 min. The resulting pellet was resuspended, homogenized and centrifuged (20.000 rpm, 15 min) in a buffer containing 20 mM Na-HEPES and 0.1 mM EDTA (pH 7.4, buffer 2). The resulting pellet was resuspended in buffer 2 and protein concentration was measured (BCA protein Assay, Pierce). The homogenate was kept cold during the whole procedure. The membranes were kept at −80° C. until use. Assay was performed in a 384 well Optiplate (PerkinElmer) in a total volume of 40 ul. Membranes were mixed with SPA beads. Final concentration of membranes 35 ng/μL final and Final concentration of SPA beads was 0.05 mg/well. Test-compounds were dissolved in DMSO and further diluted in assay buffer (50 mM Hepes, pH 7.4, 1 mM CaCl2, 5 mM MgCl₂, 0.1% OA and 0.02% Tween20). […] The final mixture was incubated for 120 min with shaking at 400 rpm at 25° C. prior to centrifugation (1500 rpm, 10 min). Samples were analyzed on TopCounter™ (Packard). The […] was calculated using (one site binding competition analysis) GraphPad Prism5 as a measure of receptor affinity.

B1: N^ε1-[2-[2-[2-[[(4S)-4-carboxy-4-(19-carboxynonadecanoylamino)butanoyl]amino]ethoxy]ethoxy]acetyl]-[Arg17,Pro21,Pro27,His34]-h-amylin (peptide)
peptide: K([AEEA-γGlu-C20 diacid])CNTATCATQRLANFLRHSSPNFGAIPSSTNVGHNTY-NH2
modifications: disulfide 2-7; N-terminus assumed
SMILES: CC[C@H](C)[C@H](NC(=O)[C@H](C)NC(=O)CNC(=O)[C@H](Cc1ccccc1)NC(=O)[C@H](CC(N)=O)NC(=O)[C@@H]1CCCN1C(=O)[C@H](CO)NC(=O)[C@H](CO)NC(=O)[C@H](Cc1c[nH]cn1)NC(=O)[C@H](CCCNC(=N)N)NC(=O)[C@H](CC(C)C)NC(=O)[C@H](Cc1ccccc1)NC(=O)[C@H](CC(N)=O)NC(=O)[C@H](C)NC(=O)[C@H](CC(C)C)NC(=O)[C@H](CCCNC(=N)N)NC(=O)[C@H](CCC(N)=O)NC(=O)[C@@H](NC(=O)[C@H](C)NC(=O)[C@@H]1CSSC[C@H](NC(=O)[C@@H](N)CCCCNC(=O)COCCOCCNC(=O)CC[C@H](NC(=O)CCCCCCCCCCCCCCCCCCC(=O)O)C(=O)O)C(=O)N[C@@H](CC(N)=O)C(=O)N[C@@H]([C@@H](C)O)C(=O)N[C@@H](C)C(=O)N[C@@H]([C@@H](C)O)C(=O)N1)[C@@H](C)O)C(=O)N1CCC[C@H]1C(=O)N[C@@H](CO)C(=O)N[C@@H](CO)C(=O)N[C@H](C(=O)N[C@@H](CC(N)=O)C(=O)N[C@H](C(=O)NCC(=O)N[C@@H](Cc1c[nH]cn1)C(=O)N[C@@H](CC(N)=O)C(=O)N[C@H](C(=O)N[C@@H](Cc1ccc(O)cc1)C(N)=O)[C@@H](C)O)C(C)C)[C@@H](C)O
notes: also called compound 76
For orientation: IC50 means the point on the concentration scale where inhibition reaches its midpoint. Regarding B1, in assay [1], the “Ratio hCT/hAmylin binding” value stood at 80. Further, the IC50 in assay [2] was found to be 17.2 nM.

B2: N^ε1-[2-[2-[2-[[2-[2-[2-[[(4S)-4-carboxy-4-(19-carboxynonadecanoylamino)butanoyl]amino]ethoxy]ethoxy]acetyl]amino]ethoxy]ethoxy]acetyl]-[Arg17,Pro21,Pro27,Pro34 … (peptide)
peptide: K([AEEA-AEEA-γGlu-C20 diacid])CNTATCATQRLANFLRHSSPNFGAIPSSTNVGPNTY-NH2
modifications: disulfide 2-7; N-terminus assumed
SMILES: CC[C@H](C)[C@H](NC(=O)[C@H](C)NC(=O)CNC(=O)[C@H](Cc1ccccc1)NC(=O)[C@H](CC(N)=O)NC(=O)[C@@H]1CCCN1C(=O)[C@H](CO)NC(=O)[C@H](CO)NC(=O)[C@H](Cc1c[nH]cn1)NC(=O)[C@H](CCCNC(=N)N)NC(=O)[C@H](CC(C)C)NC(=O)[C@H](Cc1ccccc1)NC(=O)[C@H](CC(N)=O)NC(=O)[C@H](C)NC(=O)[C@H](CC(C)C)NC(=O)[C@H](CCCNC(=N)N)NC(=O)[C@H](CCC(N)=O)NC(=O)[C@@H](NC(=O)[C@H](C)NC(=O)[C@@H]1CSSC[C@H](NC(=O)[C@@H](N)CCCCNC(=O)COCCOCCNC(=O)COCCOCCNC(=O)CC[C@H](NC(=O)CCCCCCCCCCCCCCCCCCC(=O)O)C(=O)O)C(=O)N[C@@H](CC(N)=O)C(=O)N[C@@H]([C@@H](C)O)C(=O)N[C@@H](C)C(=O)N[C@@H]([C@@H](C)O)C(=O)N1)[C@@H](C)O)C(=O)N1CCC[C@H]1C(=O)N[C@@H](CO)C(=O)N[C@@H](CO)C(=O)N[C@H](C(=O)N[C@@H](CC(N)=O)C(=O)N[C@H](C(=O)NCC(=O)N1CCC[C@H]1C(=O)N[C@@H](CC(N)=O)C(=O)N[C@H](C(=O)N[C@@H](Cc1ccc(O)cc1)C(N)=O)[C@@H](C)O)C(C)C)[C@@H](C)O
notes: also called compound 98
For B2, the “Ratio hCT/hAmylin binding” value in assay [1] worked out at 74.1. Besides, the 50% inhibitory concentration (IC50) in assay [2] was 6.74 nM.

B3: N^ε1-[2-[2-[2-[[2-[2-[2-[[(4S)-4-carboxy-4-(19-carboxynonadecanoylamino)butanoyl]amino]ethoxy]ethoxy]acetyl]amino]ethoxy]ethoxy]acetyl]-[Arg17,Pro21,Pro27,Pro31 … (peptide)
peptide: K([AEEA-AEEA-γGlu-C20 diacid])CNTATCATQRLANFLRHSSPNFGAIPSSTPVGSNTY-NH2
modifications: disulfide 2-7; N-terminus assumed
SMILES: CC[C@H](C)[C@H](NC(=O)[C@H](C)NC(=O)CNC(=O)[C@H](Cc1ccccc1)NC(=O)[C@H](CC(N)=O)NC(=O)[C@@H]1CCCN1C(=O)[C@H](CO)NC(=O)[C@H](CO)NC(=O)[C@H](Cc1c[nH]cn1)NC(=O)[C@H](CCCNC(=N)N)NC(=O)[C@H](CC(C)C)NC(=O)[C@H](Cc1ccccc1)NC(=O)[C@H](CC(N)=O)NC(=O)[C@H](C)NC(=O)[C@H](CC(C)C)NC(=O)[C@H](CCCNC(=N)N)NC(=O)[C@H](CCC(N)=O)NC(=O)[C@@H](NC(=O)[C@H](C)NC(=O)[C@@H]1CSSC[C@H](NC(=O)[C@@H](N)CCCCNC(=O)COCCOCCNC(=O)COCCOCCNC(=O)CC[C@H](NC(=O)CCCCCCCCCCCCCCCCCCC(=O)O)C(=O)O)C(=O)N[C@@H](CC(N)=O)C(=O)N[C@@H]([C@@H](C)O)C(=O)N[C@@H](C)C(=O)N[C@@H]([C@@H](C)O)C(=O)N1)[C@@H](C)O)C(=O)N1CCC[C@H]1C(=O)N[C@@H](CO)C(=O)N[C@@H](CO)C(=O)N[C@H](C(=O)N1CCC[C@H]1C(=O)N[C@H](C(=O)NCC(=O)N[C@@H](CO)C(=O)N[C@@H](CC(N)=O)C(=O)N[C@H](C(=O)N[C@@H](Cc1ccc(O)cc1)C(N)=O)[C@@H](C)O)C(C)C)[C@@H](C)O
notes: also called compound 96
Regarding B3, the “Ratio hCT/hAmylin binding” value in assay [1] is 79.6. Moreover, the IC50 in assay [2] stood at 13.2 nM.

B4: N^ε1-[2-[2-[2-(19-carboxynonadecanoylamino)ethoxy]ethoxy]acetyl]-[His14,Arg17,Pro21,Pro27]-h-amylin (peptide)
peptide: K([AEEA-C20 diacid])CNTATCATQRLAHFLRHSSPNFGAIPSSTNVGSNTY-NH2
modifications: disulfide 2-7; N-terminus assumed
SMILES: CC[C@H](C)[C@H](NC(=O)[C@H](C)NC(=O)CNC(=O)[C@H](Cc1ccccc1)NC(=O)[C@H](CC(N)=O)NC(=O)[C@@H]1CCCN1C(=O)[C@H](CO)NC(=O)[C@H](CO)NC(=O)[C@H](Cc1c[nH]cn1)NC(=O)[C@H](CCCNC(=N)N)NC(=O)[C@H](CC(C)C)NC(=O)[C@H](Cc1ccccc1)NC(=O)[C@H](Cc1c[nH]cn1)NC(=O)[C@H](C)NC(=O)[C@H](CC(C)C)NC(=O)[C@H](CCCNC(=N)N)NC(=O)[C@H](CCC(N)=O)NC(=O)[C@@H](NC(=O)[C@H](C)NC(=O)[C@@H]1CSSC[C@H](NC(=O)[C@@H](N)CCCCNC(=O)COCCOCCNC(=O)CCCCCCCCCCCCCCCCCCC(=O)O)C(=O)N[C@@H](CC(N)=O)C(=O)N[C@@H]([C@@H](C)O)C(=O)N[C@@H](C)C(=O)N[C@@H]([C@@H](C)O)C(=O)N1)[C@@H](C)O)C(=O)N1CCC[C@H]1C(=O)N[C@@H](CO)C(=O)N[C@@H](CO)C(=O)N[C@H](C(=O)N[C@@H](CC(N)=O)C(=O)N[C@H](C(=O)NCC(=O)N[C@@H](CO)C(=O)N[C@@H](CC(N)=O)C(=O)N[C@H](C(=O)N[C@@H](Cc1ccc(O)cc1)C(N)=O)[C@@H](C)O)C(C)C)[C@@H](C)O
notes: also called compound 90
Turning to B4, the “Ratio hCT/hAmylin binding” value in assay [1] is 42.2. The IC50 in assay [2] came to 2.57 nM.
